This is an account of results in US20220195070A1 (Chugai, published 2022).

B1: SKA0054 (antibody, V domains shown)
VH: QSLEESGGGLVQPEGSLTLTCTASGFSFSSSFWICWVRQAPGKGLEWLACIDAGSSDNTYYANWAKGRFTISKTSSTTVTLQMTSLTDADTATYFCARDRDAAGDAGYGYATSFNLWGPGTLVTVSS
VL: AIDMTQTPSSVSAAVGGTVTINCQASESIYSNLAWYQQKPGQRPKLLIYLASTLASGVPSRFKGSGSGTEFTLTISDLECADAATYYCQSVYYDSRGDTFFWAFGGGTEVVVKG
notes: Recombinant rabbit monoclonal from B-cell cloning, expressed in FreeStyle 293-F cells; the first screen used B-cell culture supernatant; also called Anti-SG115 Antibody; rabbit Anti Fc-Mutation Antibody
B2: SKA0052 (antibody, V domains shown)
VH: QSLEESGGDLVKSGASLTLTCTASGFSFSSSYYMCWVRQAPGKGLEWIACIYTGSNGDTYYASWANGRFTISKASSTTVTLQMTSLTAADTATYFCARYTYDDDGDYTSFNLWGPGTLVTVSS
VL: ALVMTQTPSSVSADVGGTVTINCQASQNIYRNLAWYQQKPGQRPKLLIYGASNLEPGVPSRFKGSGSGTEFTLTISDLECDDAATYYCQSVGYSGSVDTFFYAFGGGTEVVVKG
notes: as for B1
B3: SKA0127 (antibody, V domains shown)
VH: QSVEESGGRLVTPGTPLTLTCTVSGIDLSTYAMTWVRQAPGKGLEYIGYINGGGSAYYASWVNGRFTISKTSTTADLKITSPTTEDTATYFCARGPVGSYHRIWGPGTLVTVSS
VL: ALVMTQTPSSVSEPVGGTVTINCRASEDIESYLAWYQQKPGQPPKLLIYATSNLETGVPSRFKGSGSGTDYTLTISGVQCADAATYYCQGYYELSSIDNNAFGGGTEVVVKG
notes: as for B1

T6 sequence (constant, as listed by the source limits assumed): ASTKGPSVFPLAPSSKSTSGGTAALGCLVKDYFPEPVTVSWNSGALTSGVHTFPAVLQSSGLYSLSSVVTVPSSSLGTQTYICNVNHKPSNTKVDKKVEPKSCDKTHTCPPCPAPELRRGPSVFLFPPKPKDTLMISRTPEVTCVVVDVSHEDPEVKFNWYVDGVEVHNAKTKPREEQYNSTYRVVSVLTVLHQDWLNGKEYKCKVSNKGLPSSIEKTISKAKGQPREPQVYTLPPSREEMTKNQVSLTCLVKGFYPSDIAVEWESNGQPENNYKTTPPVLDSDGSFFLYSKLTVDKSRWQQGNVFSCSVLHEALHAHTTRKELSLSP
T4 sequence (P01857 1-328 D239E/L241M limits assumed): as the sequence (constant, as listed by the source limits assumed) above, with R118L, R119G, G210A, S213A, S214P, L311M, A317N, T319Y, R321Q, E323S counted along it

The target in one experiment is T1, SG115 (human, UniProt P01857 1-328 = IgG part).
T1 construct: also called modified IgG heavy chain constant region SG115
T1 sequence (P01857 other isoform, or with tags, fused parts or gaps limits assumed): as the sequence (constant, as listed by the source limits assumed) above, with S122K, T319Y counted along it
In words: ELISA, OD405 against dose (ng/mL, log axis 1-100). In general terms: In an ELISA, binding on a coated surface is turned into a signal by an enzyme label.
On to B1, for which the binding result is reported as “binds”.

As to B2, the binding result was “binds”.

For B3, the binding result is reported as “binds”.

For the next experiment, the target named is T2, SG115v1 (human, UniProt P01857 1-328 = IgG part).
T2 construct: Carries the CH2 modifications of SG115 (Arg235, Arg236, Lys239, EU); Construct used in the ELISA is not described beyond the constant region; also called modified IgG heavy chain constant region SG115v1
T2 sequence (P01857 other isoform, or with tags, fused parts or gaps limits assumed): as the sequence (constant, as listed by the source limits assumed) above, with S122K, L311M, A317N, T319Y, R321Q, E323S counted along it
Description: ELISA, OD405 against dose (ng/mL, log axis 1-100).
B1: the binding result is given as “binds”.

For B2, the binding result is reported as “binds”.

As for B3, the binding result is listed as “binds”.

In another experiment the target is T3, SG115v2 (human, UniProt P01857 1-328 = IgG part).
T3 construct: Carries the CH3 modifications of SG115 (Leu428, Ala434, Arg438, Glu440, EU); Construct used in the ELISA is not described beyond the constant region; also called modified IgG heavy chain constant region SG115v2
T3 sequence (P01857 other isoform, or with tags, fused parts or gaps limits assumed): as the sequence (constant, as listed by the source limits assumed) above, with R118L, R119G, T319Y counted along it
Description: ELISA, OD405 against dose (ng/mL, log axis 1-100).
Take B1: the binding result is recorded as “no binding (tested: about 60 ng/mL)”.

Turning to B2, the binding result was “no binding (tested: about 60 ng/mL)”.

As for B3, the binding result was “no binding (tested: about 60 ng/mL)”.

The next experiment has as its target T4, Glm (human, UniProt P01857 1-328 = IgG part).
T4 construct: Construct used in the ELISA is not described beyond the constant region; also called G1m
In words: ELISA, OD405 against dose (ng/mL, log axis 1-100).
For the molecule B1, the binding result is “no binding (tested: about 60 ng/mL)”.

For the molecule B2, the binding result was “no binding (tested: about 60 ng/mL)”.

Consider B3, for which the binding result is recorded as “no binding (tested: about 60 ng/mL)”.

The target in another experiment is T5, G4d (human, UniProt P01861 1-325 = IgG part).
T5 construct: Construct used in the ELISA is not described beyond the constant region
T5 sequence (P01861 1-325 S108P limits assumed): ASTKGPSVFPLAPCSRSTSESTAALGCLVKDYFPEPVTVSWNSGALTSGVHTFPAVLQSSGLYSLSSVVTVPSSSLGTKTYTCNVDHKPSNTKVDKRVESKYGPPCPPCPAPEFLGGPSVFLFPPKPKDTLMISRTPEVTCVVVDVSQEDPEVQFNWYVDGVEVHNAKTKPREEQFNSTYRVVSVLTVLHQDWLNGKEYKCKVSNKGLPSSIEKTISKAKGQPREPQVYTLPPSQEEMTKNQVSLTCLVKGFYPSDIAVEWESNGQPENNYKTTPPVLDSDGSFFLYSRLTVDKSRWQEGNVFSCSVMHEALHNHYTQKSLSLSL
Description: ELISA, OD405 against dose (ng/mL, log axis 1-100).
With B1, the binding result was “no binding (tested: about 60 ng/mL)”.

Consider B2, for which the binding result is “no binding (tested: about 60 ng/mL)”.

For the molecule B3, the binding result is “no binding (tested: about 60 ng/mL)”.

Another experiment concerns the target T6, Anti-IL-8 Antibody.
T6 construct: also called anti-human IL-8 antibody; Fc-Mutated Antibody
In words: SPR (Biacore T200), 25 C, pH 7.4; SKA antibody captured by anti-rabbit IgG, Anti-IL-8 Antibody injected 0-800 nM. As for the experimental part: To confirm the binding ability of Anti Fc-Mutation Antibodies that show selective binding to SG115v1, KD values of Anti Fc-Mutation Antibodies against Anti-IL-8 Antibody at pH 7.4 were determined at 25 degrees C. using Biacore T200 instrument (GE Healthcare). Sequence of Fc region of Anti-IL-8 Antibody has high similarity to that of Anti-hC5 Antibody.
Anti-rabbit IgG (Abbexa) was immobilized onto FC1 and 2 of a CMS sensor chip using an amine coupling kit (GE Healthcare). For the immobilization of anti-rabbit IgG, HBS-EP+, pH7.4 (GE Healthcare) buffer was used as running buffer. After the immobilization, running buffer was changed to Phosphate pH7.4 buffer (50 mM phosphate buffer containing 150 mM NaCl and 0.05 w/v % P-20, pH 7.4). Each Anti Fc-Mutation Antibody was captured onto FC2 of the sensor chip by anti-rabbit IgG. The amount of Anti Fc-Mutation Antibody to be captured was adjusted so that the number of resonance units (RU) was 100. Anti-IL-8 Antibody was injected at 0, 100, 400, and 800 nM at 10 micro L/min. Sensor surface was regenerated after each cycle with 10 mM Glycine-HCl, pH2.0, which was injected at a flow rate of 30 micro L/min. KD values were obtained using Biacore T200 Evaluation software, version 2.0 (GE Healthcare).
For orientation: SPR reads the build-up and loss of mass on a sensor chip optically.
A word on the Kd: it is the equilibrium constant for the complex coming apart. Broadly, the koff is the first-order rate constant of dissociation. Lower therefore signals slow dissociation. For orientation: kon means the rate constant with which the complex forms. Lower therefore signals slow association. Regarding B1, the dissociation constant Kd stood at 96.8 nM, the dissociation rate constant (koff) is 0.000966 s⁻¹ and the kon stood at 9980 M⁻¹ s⁻¹.

In the case of B2, the dissociation constant Kd was found to be 47 nM, the off-rate (koff) stood at 0.00431 s⁻¹ and the on-rate constant (kon) worked out at 91700 M⁻¹ s⁻¹.

B3 returned a Kd of 45.4 nM, an off-rate (koff) of 0.000804 s⁻¹ and an association rate constant (kon) of 17700 M⁻¹ s⁻¹.
